Experimental data as given in publication PMC9982576, “Nuclear Fructose‐1,6‐Bisphosphate Inhibits Tumor Growth and Sensitizes Chemotherapy by Targeting HMGB1” (Advanced Science, 2023).
Where a chain is given by its changes, count along the chain named.

What was measured:
[1] = target: GFP(C)-HMGB1-K43/K44A-GFP(N) construct; test: split-GFP fluorescence complementation in HEK293 cells (Cytation cell imaging reader); settings: each construct normalised to its own 0 mM value (1.0), read off a plot
[2] = target: T1, HMGB1 (Homo sapiens, UniProt P09429); test: SPR, inhibition of free HMGB1 binding to chip-anchored DNA; settings: 100 mM Hepes, 50 mM NaCl; 25 °C; unmodified DNA
T1 construct: full-length, expressed in and purified from human HEK293 cells; self-associates into oligomers
T1 sequence (P09429 1-215): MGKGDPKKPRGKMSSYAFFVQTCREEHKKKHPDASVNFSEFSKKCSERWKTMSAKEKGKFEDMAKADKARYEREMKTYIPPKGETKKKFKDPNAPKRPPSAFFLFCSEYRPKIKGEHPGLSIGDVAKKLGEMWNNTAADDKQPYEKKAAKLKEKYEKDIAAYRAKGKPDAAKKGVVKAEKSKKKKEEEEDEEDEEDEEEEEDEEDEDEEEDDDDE

[3] = target: T1, HMGB1; test: isothermal titration calorimetry; format: binding; settings: 100 mM Hepes, 50 mM NaCl; single-site model; allosteric ligand
[4] = target: T1, HMGB1; test: SPR, inhibition of free HMGB1 binding to chip-anchored HMGB1; settings: 100 mM Hepes, 50 mM NaCl; 25 °C; HMGB1 self-association
Source text: SPR, inhibition of free HMGB1 binding to chip-anchored HMGB1 on HMGB1 | inhibitory efficiency of F1,6P on free HMGB1 binding to chip‐anchored HMGB1

[5] = target: T2, HMGB1 A-box (aa1–83) (Homo sapiens, UniProt P09429); test: ITC of A-box with C15 peptide, with or without F1,6P; format: binding; settings: 0.2 mM F1,6P; 100 mM Hepes, 50 mM NaCl; disruption of the A-box - C-tail peptide interaction
T2 construct: A-box domain aa1-83, purified from HEK293 cells; assayed with synthetic C15 peptide (HMGB1 C-tail aa200-214)
T2 sequence (P09429 1-83): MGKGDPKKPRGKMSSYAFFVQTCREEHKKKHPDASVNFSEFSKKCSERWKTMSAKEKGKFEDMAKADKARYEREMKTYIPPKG

[6] = target: T3, HMGB1 A-box (aa1–83), purified (UniProt P09429 1-83); test: ITC; purified HMGB1 A-box in the cell titrated with free C-tail (15) peptide; 100 mM Hepes, 50 mM NaCl; with or without 0.2 mM F1,6P; single site binding model; settings: both partners purified
T3 construct: HMGB1 A-box, aa1-83; also called HMG A-box; source: HEK293 cells, expressed and purified
T3 sequence (looked up): T2 sequence (P09429 1-83)

[7] = target: T4, HMGB1 A-box K43/44A, purified (UniProt P09429 1-83, K43/44A | K43/44A); test: as above; settings: both partners purified
T4 construct: HMGB1 A-box (aa1-83 as told for the wild-type A-box) with K43 and K44 changed to alanine; also called K43/44A A-box; source: HEK293 cells, expressed and purified
T4 sequence (looked up): T2 sequence (P09429 1-83) with K43A, K44A

Molecule: GFP(C)-HMGB1(A-B)-linker-HMGB1(C)-GFP(N) fusion protein K43A; K44A
- response (relative fluorescence intensity) ([1]; 1 mM F1,6P, parent: est. 0.83): 0.93
- response (relative fluorescence intensity) ([1]; 5 mM F1,6P, parent: est. 0.53): 0.92
- response (relative fluorescence intensity) ([1]; 10 mM F1,6P, parent: est. 0.38): 0.9

Molecule: O=P(O)(O)OC[C@H]1OC(O)(COP(=O)(O)O)[C@@H](O)[C@@H]1O (stereo partly drawn) [F1,6P]
- IC50 [2]: 14.1 µM
- Kd [3]: 28.6 µM
- IC50 [4]: 12.7 µM
- ITC of A-box with C15 peptide, with or without F1,6P [5]: C15 peptide displayed good affinity for the A‐box, whereas the interaction was highly disrupted by F1,6P

B1: C15 peptide (HMGB1 aa200–214) (peptide, UniProt P09429 200-214, looked up)
peptide: EEDEEDEDEEEDDDD
notes: HMGB1 acidic C-tail, aa200-214; also called C-tail (15) peptide; C-tail (15); source: synthetic peptide
- binding result [6]: binds
- binding result [7]: binds
